Results taken from paper PMC6367273.

Key:
[1] = target: LPHN1-S (FLAG-tagged splice variant of murine LPHN1 with a truncated intracellular tail) (mouse); assay: immunostaining of cells or tissue; HEK-LPHN1-S, HEK-WT and HEK-Puro cells incubated with FITC-K37-mTCAP-1 (1:400) in medium with HEPES pH 7.4 and 0.1% BSA for 12 h at 4°C, washed, fixed, stained with Cy3-tagged FLAG antibody; confocal microscopy; green pixels (intensity 20-255) per cell
[2] = target: LPHN1-S (FLAG-tagged splice variant of murine LPHN1 with a truncated intracellular tail) (mouse)
[3] = target: LPHN1-S (FLAG-tagged splice variant of murine LPHN1 with a truncated intracellular tail) (mouse); remark: listed apart in the source

Row | green pixels per cell [1] | f-actin (Phalloidin red pixels per cell) in HEK-LPHN1-S cells treated with 100 nM mTCAP-1 for 60 min against vehicle; no significant change in HEK-WT cells [2] | cell height of HEK-LPHN1-S cells treated with 100 nM mTCAP-1 for 60 min against vehicle; no significant change in HEK-WT cells [3] | Substance
1 | 49.5 pixels/cell |  |  | FITC-tagged K37-mTCAP-1 (peptide)
2 |  | 343% | 39% | Mouse TCAP-1 (mTCAP-1), synthetic (peptide)
